Laboratory results as given in the DeepSol protein solubility set.

Assay: soluble on expression in E. coli; label from the status in PepcDB or PDB records
With “MDKTVFQQDLAPYVKYSLNKKKRWETGNDKNYLSEVQKRYRGMDMFVIDRVRLNSSPYFCFISRENFFHNYFLQFPIRQLHQLNADNSYSYVYANQTYGQSYKSLQPENRSPSKSKSAKKPELYQNAKVAYHIITPPKNYEKLQAPKFCPGSSDRNLTHRTLTHWRRVKRMRDALLSLRYEKFEVLDEEVDMVDDYLIFDQYDPPRKLLV” the “soluble on expression in E. coli” value was “not soluble”.
With “MGQGQTKSEQKLSEQTLRKFYDAQLENQLIAENLKWAQQRAVDLLKVRDQLQWEVLAAATTTVVLLAAGSIYKRKDVIIPIVPLIMGCGYQYDVAHGDNRQLVRETAVELLKTPEELHMLPAITLRDIDEFRDSHKL” the “soluble on expression in E. coli” value was “not soluble”.
With “SLEKELKVITIDELKKYIRNNEEDKIEEVDVVTSATCGIMSGTAGIFHIPFNEVFKRAEEIYLNDIKGVVGICPNEFLGKVDAIFYGEVGFLFKDLVKGKVVEAKAISEGKIYKNEITIDDLPTAKMIGTRMAFKNYTAITNLSDEEVNTIFHRLPLKKGEASFSGCGMLNPLENMVIKDEKDVVGKKALLNGAEAIILGFGTRASIEKPNLMMSADMKDMDAYYLGGFVTSNGIEIYNTIAVPIKVDEHKEALKKLDKDITLPLVNIFGREIIDIGSYAEVWENVDLRPKIYQDKCKNCRECLVEKYCPTFAIKRENGKIKITEDCFGCGVCNICPYGVFKTKLGSVCGIPITCRQSDRKRALKLAKELKKKIERGEFKI” the “soluble on expression in E. coli” value was “not soluble”.
For “MGSDKIHHHHHHMQDVTGRALVMMESATQGQQGIAMDLVQEAFIALHKSYADRSTEEWYPLFYTILNNKLQDWRRKEARRANPFSFFKKVSLDNDDEEIIDIVDEKAINPADFLDQAVTIEEIQEAIAKLPVRQQQAFMLRAWEGFDTHTTAQIMNCTEGSVKTHYHRAIQGLREYLAHLNPMGGSNES”, the “soluble on expression in E. coli” value was “not soluble”.
In the case of “MVSSAVKCGICRGVDGKYKCPKCGVRYCSLKCYKDAAKHVHKESEQPRAGTEANVEVVNNDKIINSSLAMNKTLKTKAFDDIYQNSAELQELLKYNTVKFHLAKVYRILSSTVNDGSSGKMNSDLQKELAVNYLNTLRYGGIHYNEAIEEFCQILLDKLNAVKK”, the “soluble on expression in E. coli” value is reported as “soluble”.
With “MSLQMDQYLAQPLMIQEAQLVTIASGTTLSRELAQLTEQAWIQDSFVAEWVRRFHPELSKIKAGTYKLQPDMSLEQALALLVSGKEHQFSITFVEGSRFQEWRDILASNENITQQLTGLTEIDIAKALGIEHEKLEGLFLAETYHFTKGTSDVEILKRANQKLEKFLQVTWEHRQEGLPIQTPYEALILASIIEKETSIAEERERIAAVFINRLNKRMRLQTDPTVIYGMGETYDGNIRKKDLRARTPYNTYVINGLPPTPIAMPGEASIYAALNPEQSDYLYFVASGEGGHNFSKTLADHNRAVRAYLKKLRTKQEGHHHHHH” the “soluble on expression in E. coli” value was “soluble”.
With “MEQPYVYAYPQGSGPSGAPTPQAGGVVVDPKYCAPYPIDMAIVRKMMSLTDGNFVITDVNGNLLFKVKEPVFGLHDKRVLLDGSGTPVVTLREKMVSMHDRWQVFRGGSTDQRDLLYTVKRSSMLQLKTKLDVFLGHNKDEKRCDFRVKGSWLERSCVVYAGESDAIVAQMHRKHTVQSVFLGKDNFSVTVYPNVDYAFIASLVVILDDVNREDRAA” the “soluble on expression in E. coli” value was “soluble”.
For “MGSDKIHHHHHHMSTTEIVKEAESRHDFALIANWIQPQSKVLDLGCGNGSLLSFLREKLGVKGYGVDKDDDNVLACIGHGVNVIQMDLEAGLAGFDSLSFDYVILSQTLQAMVNTEGVLREMLRVGKQGIITFPNFGYWRHRIQLMAGHMPVSDNIPHQWYNTPNLHLCTIDDFEALCDKMNIRITDRIVINEGNTVSFMPNLFGSLAIYRFEQAAWPVSY”, the “soluble on expression in E. coli” value was “not soluble”.
For “MSSFVPNKEQTRTVLIFCFHLKKTAAESHRMLVEAFGEQVPTVKTCERWFQRFKSGDFDVDDKEHGKPPKRYEDAELQALLDEDDAQTQKQLAEQLEVSQQAVSNRLREMGKIQKVGRWVPHELNERQMERRKNTCEILLSRYKRKSFLHRIVTGDEKWIFFVNPKRKKSYVDPGQPATSTARPNRFGKKTMLCVWWDQSGVIYYELLKPGETVNAARYQQQLINLNRALQRKRPEYQKRQHRVIFLHDNAPSHTARAVRDTLETLNWEVLPHAAYSPDLAPSDYHLFASMGHALAEQRFDSYESVKKWLDEWFAAKDDEFYWRGIHKLPERWEKCVASDGKYFE”, the “soluble on expression in E. coli” value was “soluble”.
With “MSEYPILPSTLIPADPRFGCGPSKVRPAQLNAIVNAGADVIGTSHRQPAVKNIVGSIREGLSSLFSLPDGYEIVLSLGGATAFWDAATFGLIEKKSGHLTFGEFSGKFAKASAQAPWLDEPTIISAEPGDTPTPVAMEGCDVIAWAHNETSTGAMVPVIRPENSDGQLVAIDATSGAGGLPVDMHNADVYYFSPQKCFASDGGLWLAAMSPAALERIEKINASDRFIPAFLNLQTAVDNSRKNQTYNTPAVGTLLMLENQVEWMNANGGLDAMVERTTANSSALYEWAEKRAETTPYVTDPAKRSLVVGTIDFDDSIDAAALAKVLRANGILDVEPYRKLGRNQLRIGMFPAIDTADMDTLTAAIDYVLDNGFAQA” the “soluble on expression in E. coli” value was “not soluble”.
With “MNFDVVIIGGGLAGLTCGIALQKQGKQCAIINNGQAAIDFSSGSMDLLSCLPSGQKVHVFCEAFSELSQQAPEHPYCLLGQHQVVAKVQQFEQFMQELGLVGSHKQNHLRVTPLGGLRHTWLSPKSVPVIAENEHFPYRQIAILGIEGYHDFQPQILVDNLKQNAAFSHCDFSIGYLNIPELDYLRQNAREFRSVNIAQLLEHKLAFEDLVQEIKQAAGNAQAVFLLACFGLDDQRFFDSLKQATALALFELPTLPPSLIGIRQYRTLRDQFEKLGGLLLNGDRAVRAEFDGDRVARIFTTLHQEESINAAHFVLASGSFFSNGLVAEFERVKEPIFDLDIIGNKAFINSERVSWTDKRFAAAQPYQSAGVAINHHCQVYKNGHLIPNLYAIGNVIGGFWGIEQGCASGVSVVTALTVAEWVGGTKLEHHHHHH” the “soluble on expression in E. coli” value was “not soluble”.
With “MSLGEPEELVIGGVFSLSSGTSVEACRQALAGAMAAVEWVNSNGGVNIGGSKVPVRLLQEDDKGDPANAVRLIEYMARQRGVGVMLAPCDPGVLVDAVEAARGYGVVSIVYGDAPASVADPGGKTLLVGAPAEEYFTPVLEMVSILDIQSRNLAIVYQDTGFAAAVAEATRNRAVEQGFVVVLYSAYPPQAGEEELGTLALRLQASNPDVIIAIGGFRDGVELVRAMSSYGVEAKFIAMAVAPSVPEFYSELGALSQAILYPTLWELASKPYTTAEGYEWFGPSREEFYSLFREAIESLGHPVSEPGYHAAMAALAVLAVAKAAEEAGSLDPDAIYESLKNIKIMTFAGPFDLNPETGLQNEREVLVGQWINGRRFTVWPVGQAYATPVYPHEGHHHHHH” the “soluble on expression in E. coli” value was “soluble”.
In the case of “MGSDKIHHHHHHMQTVQALLTAAKVDSAESPYDTIHIKVLYPAKNTDSNLEKNWGMLPVDAAQAPFPVVIFFNGFNCDAQKYQWLGIELAQTGLVVVMFNWVGESLPGLVSFTPGFEIEKRKREFYGTVPTASALPVILTKLAQLQSAGILSGTLDLEKIILGGHSEGGRVAMENANPNFFPQVVASFAYGSHTAGAVMLGYKPNTILPLPDTLPRLVIGGTHDGVIANSSAHFGLNTKDATTPVIRTFQEAIMGGRENSYLLLLRGANHFSIVDIVDSTLALPFKDIPATQPQEHFRLLLATIIHLFIDAHVRHQPEAFQKLEQLLIVTNPLIQSFERK”, the “soluble on expression in E. coli” value is reported as “not soluble”.
For “GPGSMAATTEVTPEHVLQLTAPSTGFLCPITANTYNIEFYSFVVRDADTKQVMFEVERDASTYPSVASLAQLPEEQQQAARTIFYRFPPSMLRKQRVSATLLFGVNGDKPVPDLRMIERHYFRNTLVKTFDFKFGFCIPHSRNTWEAVYDVPQFNAEWLEAIEKGTNEMTSDSFYFADGRLIMHNRAFYDYSAPEEEFTK”, the “soluble on expression in E. coli” value was “soluble”.
With “MSEAWITLATNDNYAQGALVLVHSLRTAGTTRKIHCLISNEVSAPVRKQLEEHFDDVSIVDVFNSNDSDNLRLIERPDLGVTFTKLHCWRLTQYTKCVFLDADTLVLRNADELFTRPDFSAASDIGWPDSFNSGVFVYVPNNETYRQLVDFAVTHGSYDGGDQGLLNDFFSNWRDLPSEHRLPFIYNMTAGAFYTYAAAYKRYGANTKIVHFIGSVKPWHGSAAVHTGEHFQQWQKIYHAHVNHTSRTNEHAAVFPSHHHTPEHRSHSADHPKIERKDSIVREIGNFVMHVVQSVNILPSYDTDANTSDSHRNNEPHKHDQQREEHHELPHNKFQTPHEESQDIVGSTDCFGSQMPKYNADSETDREVEQITNNTPCPAFVPFERREEYQAASPSTEERRAAWEAGQPDYLGRDAFVHIQEALNRALNE” the “soluble on expression in E. coli” value was “not soluble”.
For “MGSDKIHHHHHHENLYFQGMKIKVALLDKDKEYLDRLTGVFNTKYADKLEVYSFTDEKNAIESVKEYRIDVLIAEEDFNIDKSEFKRNCGLAYFTGTPGIELIKDEIAICKYQRVDVIFKQILGVYSDMAANVATISGENDKSSVVIFTSPCGGVGTSTVAAACAIAHANMGKKVFYLNIEQCGTTDVFFQAEGNATMSDVIYSLKSRKANLLLKLESCIKQSQEGVSYFSSTKVALDILEISYADIDTLIGNIQGMDNYDEIIVDLPFSLEIEKLKLLSKAWRIIVVNDGSQLSNYKFMRAYESVVLLEQNDDINIIRNMNMIYNKFSNKNSEMLSNISIKTIGGAPRYEHATVRQIIEALTKMEFFEEILQ”, the “soluble on expression in E. coli” value was “soluble”.
In the case of “GMTRRIAICAPSTPFTREDSARVIALAAAEFPDLSLSFHEQCFASEGHFAGSDALRLSAFLECANDDAFEAVWFVRGGYGANRIAEDALARLGRAASAKQYLGYSDAGTLLAALYAHRIGRSVHAPMPVDIRRPEGESAVRRTLGWLAGAREGLEPTLGAGAPAVAFNLMTLAMLCGTRLLPDLSGHVVMIEEVAEHHYAVDRLLFHVTSCLADAGIAGLRLGRVSDVPENDRPFGCSVEEMARHWCHRAGIAFLGTADIGHDVDNRIVPFGLA”, the “soluble on expression in E. coli” value is reported as “soluble”.
For “SNALQPNMRTRVCTVINNNIAHEWTLARIASELLMSPSLLKKKLREEETSYSQLLTECRMQRALQLIVIHGFSIKRVAVSCGYHSVSYFIYVFRNYYGMTPTEYQERSAQRLSNRDSAAS”, the “soluble on expression in E. coli” value was “soluble”.
For “MQLFDLPLDQLQTYKPEKTAPKDFSEFWKLSLEELAKVQAEPDLQPVDYPADGVKVYRLTYKSFGNARITGWYAVPDKEGPHPAIVKYHGYNASYDGEIHEMVNWALHGYATFGMLVRGQQSSEDTSISPHGHALGWMTKGILDKDTYYYRGVYLDAVRALEVISSFDEVDETRIGVTGGSQGGGLTIAAAALSDIPKAAVADYPYLSNFERAIDVALEEPYLEINSFFRRNGSPETEVQAMKTLSYFDIMNLAYRVKVPVLMSIGLIDKVTPPSTVFAAYNHLETKKELKVYRYFGHEYIPAFQTEKLAFFKQHLKG”, the “soluble on expression in E. coli” value was “soluble”.
With “MAHHHHHHSLNDELKNKSGKVKVMYVRSDDDSDKRTHNPRTGKGGGRPAKSRTDGGRRPARDERNNQSRDRKHETSPWRTVSRAPGDETPEKVDHGGISGKSFIDPEVLRRQRAEETRVYGENACQALFQSRPDAIVRAWFIQSVTPRFKEALRWMAANRKAYHVVDEAELAKASGTEHHGGVCFLIKKRNGTTVKQWVKQAADQDCVLALEDVANPHNLGGMMRSCAHFGVKGVVVQDAALLESGAAIRTAEGGAEHVQPITGESIVDVLDDFRQAGYTVVTTSSDRGQALFSTTLPEKMVLVLGREYDYLPEAAREPDDLCVKINGTGNVESLNVSVATGVLLAEWWRQNKAEG” the “soluble on expression in E. coli” value was “soluble”.
In the case of “NGMDEEQRQKRRRIEVALIEYRETLEEQGMKNPEEIERKVEINRKRLEVDYGLS”, the “soluble on expression in E. coli” value is reported as “soluble”.
With “MGSDKIHHHHHHMDIPWLVERDDRNERIVLSIKTNAKEALENAYRKKSRVTGKMIAYVHDSCANFFCEEGWLQEGAVSTYFHNGQANVFSFFLKEDRQNSDHERLHREVLSYVQKIERTLELSSHAVQRLNEADTDSLAQLYRHVFERYPTDVFSAQYLQQTMKEGAKFVGVKEGTDIICAASAVPNGFGGWEITDCATKKEARGNGYLSSVLCELEQWLWEEGEENVYSITRSHSFGMNVTIKKRGFSYEGTMVNNCIIGTGFEDMNIWTKRLTATNIC” the “soluble on expression in E. coli” value was “not soluble”.
